Laboratory results from patent publication US20250179139A1 (CENTRO DE INMUNOLOG A MOLECULAR, published 2025).

B1: recombinant extracellular domain of the human IL-2 receptor beta subunit (receptor, UniProt P14784 27-240, looked up)
chain: AVNGTSQFTCFYNSRANISCVWSQDGALQDTSCQVHAWPDRRRWNQTCELLPVSQASWACNLILGAPDSQKLTTVDIVTLRVLCREGVRWRVMAIQDFKPFENLRLMAPISLQVVHVETHRCNISWEISQASHYFERHLEFEARTLSPGHTWEEAPLLTLKQKQEWICLETLTPDTQYEFQVRVKPLQGEFTTWSPWSQPLAFRTKPAALGKDT
notes: extracellular domain; also called beta chain of the IL-2 receptor; beta subunit of the receptor

Experiments:
[1] = target: B1; test: phage ELISA; ratio of the signal on the beta subunit extracellular domain to the signal on anti-c-myc antibody 9E10 (display level); anti-M13 antibody-HRP
Description: The binding capacity of the new variants to the extracellular domain of the IL-2 receptor beta subunit was assessed by ELISA. For this purpose, plates were coated with the recombinant extracellular domain of the IL-2 receptor beta subunit. The bound phages were detected with an anti-M13 antibody conjugated to horseradish peroxidase. Simultaneously, their binding to a plate coated with the monoclonal antibody 9E10 directed against the c-myc peptide that is fused to the proteins presented on the phages was determined to establish the display levels of each. The ratio between the signals obtained with both coating molecules (relative reactivity) is plotted as a measure of the intrinsic binding capacity of each variant to the beta-subunit.

[2] = target: T1, IL-2/Fc (K35E) fusion protein (human, UniProt P60568 21-153); test: BIAcore (SPR); format not stated
T1 construct: mature; IL-2 fused to the N-terminal end of human IgG1 Fc; also called fusion protein derived from the original IL-2; human IL-2/Fc fusion protein
T1 sequence (P60568 other isoform, or with tags, fused parts or gaps K35E K35E limits assumed): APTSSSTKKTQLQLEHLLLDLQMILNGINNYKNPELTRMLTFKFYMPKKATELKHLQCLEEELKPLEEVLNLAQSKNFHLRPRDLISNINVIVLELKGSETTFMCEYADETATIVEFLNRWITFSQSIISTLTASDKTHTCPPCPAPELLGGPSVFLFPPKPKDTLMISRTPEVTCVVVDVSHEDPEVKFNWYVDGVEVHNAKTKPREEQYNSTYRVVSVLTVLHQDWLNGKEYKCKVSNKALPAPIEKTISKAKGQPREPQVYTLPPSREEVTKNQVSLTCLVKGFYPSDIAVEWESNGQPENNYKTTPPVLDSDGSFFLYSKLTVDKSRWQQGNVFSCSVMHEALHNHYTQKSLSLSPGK

[3] = target: T2, H9/Fc (K35E) fusion protein (human, UniProt P60568 21-153); test: BIAcore (SPR); format not stated
T2 construct: mature; Same format as the other Fc fusions; also called fusion protein based on the H9 superkine
T2 sequence (P60568 other isoform, or with tags, fused parts or gaps K35E K35E limits assumed): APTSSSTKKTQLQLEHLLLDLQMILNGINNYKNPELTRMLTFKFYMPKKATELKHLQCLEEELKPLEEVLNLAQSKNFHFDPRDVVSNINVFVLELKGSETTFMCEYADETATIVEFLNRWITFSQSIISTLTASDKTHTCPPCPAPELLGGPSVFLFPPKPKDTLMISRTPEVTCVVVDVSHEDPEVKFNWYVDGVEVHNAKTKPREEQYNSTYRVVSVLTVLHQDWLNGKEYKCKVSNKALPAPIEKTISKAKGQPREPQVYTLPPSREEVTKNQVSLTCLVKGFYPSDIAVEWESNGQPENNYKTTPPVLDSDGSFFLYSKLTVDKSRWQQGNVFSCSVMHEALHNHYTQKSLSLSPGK

Row | Binder | binding result [1] | Kd [2] [µM] | koff [2] [s⁻¹] | kon [2] [M⁻¹ s⁻¹] | Kd [3] [µM] | koff [3] [s⁻¹] | kon [3] [M⁻¹ s⁻¹]
1 | IL-2 variant 1A displayed on phage (S2 library) (other, not shown: large carriers; small tags and cut ends, Substitutions are derived from the segment name printed for the fusion protein built from this clone) TSSSTKKTQLQLEHLLLDLQMILNGINNYKNPKLTRMLTFKFYMPKKATELKHLQCLEEELKPLEEVLNLAQSKNFHFDPHDVVENINVLLLELKGSETTFMCEYADETATIVEFLNRWITFSQSIISTLT | binds |  |  |  |  |  | 
2 | B1 |  | 0.106 | 0.00326 | 30800 | 0.00409 | 0.000395 | 97200
